The source of these data is US20230212304A1 (BIOSION, published 2023).

The target of test [1] is T1, recombinant human CTLA4 protein with human IgG1 Fc tag at the C-terminus (Acro biosystems, Cat#CT4-H5255) (human, UniProt P16410 37-162).
T1 sequence (looked up): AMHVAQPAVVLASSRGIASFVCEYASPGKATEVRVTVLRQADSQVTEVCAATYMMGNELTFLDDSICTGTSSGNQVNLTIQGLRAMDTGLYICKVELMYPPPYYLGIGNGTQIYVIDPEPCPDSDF
Kind of test: cell-based or functional assay.

In test [2] the target is T2, recombinant human CTLA4-his protein (Acro biosystems, Cat#CT4-H5229) (human, UniProt P16410 37-162).
T2 construct: bought recombinant protein; not shown: his tag
T2 sequence (looked up): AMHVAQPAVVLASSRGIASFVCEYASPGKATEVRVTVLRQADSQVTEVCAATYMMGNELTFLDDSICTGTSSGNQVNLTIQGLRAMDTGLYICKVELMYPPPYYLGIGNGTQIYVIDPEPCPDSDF
Kind of test: SPR, Biacore T200; antibody captured, CTLA4-his as analyte. As to the method: (§1) Un-reacted moieties on the biosensor surface were blocked with ethanolamine. […] The antigen-antibody association kinetics was followed for 2 minutes and the dissociation kinetics was followed for 10 minutes. The association and dissociation curves were fit to a 1:1 Langmuir binding model using BIAcore evaluation software.

The target of test [3] is T3, cynomolgus monkey CTLA4-his protein (Acro biosystems, Cat#CT4-C5227) (cynomolgus monkey, UniProt G7PL88 36-161).
T3 construct: bought recombinant protein; also called Cynomolgus CTLA4-his; not shown: his tag
T3 sequence: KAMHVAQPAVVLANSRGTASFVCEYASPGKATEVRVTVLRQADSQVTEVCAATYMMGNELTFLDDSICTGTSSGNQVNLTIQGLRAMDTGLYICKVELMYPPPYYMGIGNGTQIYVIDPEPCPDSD
The description is as above. On the procedure: as §1

For test [4], the target named is T1, recombinant human CTLA4 protein with …. Kind of test: capture ELISA: antibody captured on anti-mouse IgG F(ab')2 coated plate, biotin human CTLA4-Fc 26 ng/ml, streptavidin-HRP, OD(450-630). On the procedure:
(§2) Plates were washed once with wash buffer (PBS+0.05% v/v Tween-20, PBST) and then blocked with 200 µl/well blocking buffer (PBST with 5% w/v non-fatty milk) for 2 hours at 37° C. […] After a final wash, plates were incubated with 100 µl/well substrate TMB (Innoreagents, Cat#TMB-S-002). The reaction was stopped in 15 minutes at room temperature with 50 µl/well 1M H₂SO₄, and the absorbance of the each well was read on a microplate reader using dual wavelength mode with 450 nm for TMB and 630 nm as the reference wavelength, then the OD (450-630) values were plotted against antibody concentration. Data was analyzed using Graphpad Prism software and EC₅₀ values were reported.
(In general: An ELISA detects its analyte on a solid surface through an enzyme-linked reagent.)

Test [5] has the same target. Kind of test: competitive ELISA: antibody pre-mixed with biotin human CTLA4-Fc (65 ng/ml), added to plate coated with the benchmark; competitor: coated Yervoy. On the procedure:
Plates were washed once with wash buffer, blocked with 200 µl PBST with 5% w/v non-fatty milk, incubated for 2 hours at 37° C., and washed 4 times.
After incubation at 37° C. for 40 minutes, plates were washed 4 times again using wash buffer. Then the plates were added and incubated with 100 µl/well streptavidin conjugated HRP (1:10000 dilution in PBST, Jackson Immuno Research, Cat#016-030-084, 100 µl/well) for 40 minutes at 37° C. Plates were finally washed using wash buffer. Finally, TMB was added and the reaction was stopped using 1M H₂SO₄, and the absorbance of the each well was read on a microplate reader using dual wavelength mode with 450 nm for TMB and 630 nm as the reference wavelength, then the OD (450-630) values were plotted against antibody concentration. Data was analyzed using Graphpad Prism software and IC₅₀ values were reported.

Test [6] has the same target. Kind of test: cell based blocking FACS: antibody pre-mixed with human CTLA4-Fc (1 ug/mL), added to Daudi cells; blocked ligands: cell surface CD80/CD86. As to the method:
Daudi cells were harvested from cell culture flasks at the log phase, washed twice and re-suspended in PBS containing 2% v/v Fetal Bovine Serum (FACS buffer). […] Cells were washed twice and re-suspended in FACS buffer. Fluorescence was measured using a Becton Dickinson FACS Canto II-HTS equipment. Data was analyzed using Graphpad Prism software and IC₅₀ values were reported.

Test [7] shares this target. The test can be described thus: capture ELISA: antibody captured on coated plate (anti-human IgG Fc for the chimeric antibodies), biotin human CTLA4-Fc, streptavidin-HRP, OD(450-630). As to the method:
as §2
For the capture ELISA, AffiniPure Goat Anti-Human IgG, Fcy fragment specific (Jackson Immuno Research, Cat#109-005-008) was used instead of AffiniPure Goat Anti-Mouse IgG, F(ab′)₂ fragment specific, 100 µl/well.

B1: mouse anti-CTLA4 monoclonal antibody D1G6 (antibody, V domains shown)
VH: EVQLQQSGPELVKPGASVKLSCKASGNTFTTYVLNWVKQKPGQGLEWIGYFNPYNDAIKYNEKFKGKATLTSDKSSSTAYMELSSLTSEDSAVYYCARFEGGGYAMDYWGQGTSVTVSS
VL: DIVLTQSPASLAVSLGQRATISCRASQSVGTSSYSYIHWYQQKPGQPPKLLIKYASDLESGVPARFSGSGSGTDFTLNIHPVEEEDTATYYCQHSWEIPYTFGGGTKLEIK
notes: mouse mAb purified from hybridoma supernatant
The Kd is the constant that tells how readily two partners part at equilibrium. One may read the koff as the rate constant with which the complex falls apart. What is called kon is the second-order rate constant of association. By EC50 is commonly meant the concentration at which the effect is half-maximal. A word on the IC50: it is the concentration at which inhibition is half-maximal. B1: in test [1], the “EC50 of IL-2 release (GS-J1 T cells + GS-C1/CD80 cells + human CTLA4-Fc, IL-2 HTRF)” value (“EC50 of IL-2 release” below) amounted to 41.5 nM. Also, in test [2], the Kd was determined as 9.06 nM, the off-rate constant (koff) turned out to be 0.000695 s⁻¹ and the kon was determined as 76700 M⁻¹ s⁻¹. In test [3], this molecule had a Kd of 1.96 nM, a koff of 0.000662 s⁻¹ and an on-rate constant (kon) of 338000 M⁻¹ s⁻¹. For the same molecule, the concentration giving a half-maximal response (EC50) in test [4] turned out to be 0.0979 nM. Moreover, the IC50 in test [5] is 0.445 nM.

B2: mouse anti-CTLA4 monoclonal antibody D1H3 (antibody, V domains shown)
VH: QVQLQQPGAELVNPGASVKLSCKASGYTFTSYWLHWVKQRPGRGLEWIGRIDPNRGTIYYNEKFNNKATVTVDKPSNTAYMQLSRLTLEDSAVYYCARGGSNFYAMDYWGQGTSVTVSS
VL: DIQMTQSPASLSASVGETVTITCRTSENIYSYLAWYQQKQGESPQLLVYNAKTLAEGVPSRFSGSGSGTQFSLKINSLQPEDFGSYYCQNHDGIPFTFGSGTKLEIK
notes: as for B1
As to B2, the “EC50 of IL-2 release” value in test [1] worked out at 37.8 nM. Moreover, the Kd in test [2] was 4.15 nM; in test [3], 2.07 nM. Besides, the values for the koff in test [2] and in test [3] were 0.000931 s⁻¹ and 0.000601 s⁻¹, respectively. In addition, the on-rate (kon) in test [2] was determined as 224000 M⁻¹ s⁻¹; in test [3], 290000 M⁻¹ s⁻¹. In addition, the concentration giving a half-maximal response (EC50) in test [4] came out at 0.206 nM. In addition, the IC50 worked out at 9.27 nM in test [6] and 1.86 nM in test [5].

B3: mouse anti-CTLA4 monoclonal antibody D1A7 (antibody, V domains shown)
VH: QVTLKESGPGMLQPSQTLSLTCSFSGFSLSSSKLGVGWIRQPAGKGLEWLAHIWWNDDNYYVPSLKSRLTISKDTSNNQVFLKITNVDAADTATYYCVQVPYYTTQPWFAYWGQGTLVTVSA
VL: DIQMTQSPASLSASVGETVTITCRASGNIHNYLAWYLQNQGRSPQLLVYNTETLADGVSSRFSGSGSGTQYFLKISSLQPEDFGTYYCQHLWSTPWTFGGGTKLEIK
notes: as for B1
Regarding B3, the “EC50 of IL-2 release” value in test [1] is 45.9 nM. Besides, the dissociation constant Kd in test [2] amounted to 2.41 nM; in test [3], 1.66 nM. Besides, the dissociation rate constant (koff) amounted to 0.000602 s⁻¹ in test [2] and 0.00137 s⁻¹ in test [3]. The kon was found to be 249000 M⁻¹ s⁻¹ in test [2] and 829000 M⁻¹ s⁻¹ in test [3]. Besides, the concentration for a half-maximal effect (EC50) in test [4] was found to be 0.134 nM. For the same molecule, the results for the IC50 in test [6] and in test [5] were 6.81 nM and 0.445 nM, respectively.

B4: mouse anti-CTLA4 monoclonal antibody D2A4 (antibody, V domains shown)
VH: QVQLQQPGAELVKPGSSVNLSCKASGYTFTSYWVHWVKQGPGRGLEWIGRIDPNRGGTYYNENFKTKAALTVDSPSSTAYMHLSSLTSEDSAVYYCARGGLNYYALDYWGQGTSVTVSS
VL: DIQMTQSPASLFASLGETVTITCRASENIYSYLAWYQQKQGKSPQLLVYNANTLTEGVPSSFSGSGSGTQFSLKINTLQPEDFGTYYCQHHYGIPFTFGSGTKLEIK
notes: as for B1
On to B4, for which the “EC50 of IL-2 release” value in test [1] came to 38.3 nM. In addition, the dissociation constant Kd in test [2] and in test [3] was 2.24 nM in each case. The koff in test [2] turned out to be 0.00153 s⁻¹; in test [3], 0.00076 s⁻¹. Moreover, the association rate constant (kon) in test [2] is 671000 M⁻¹ s⁻¹; in test [3], 340000 M⁻¹ s⁻¹. In test [4], the concentration giving a half-maximal response (EC50) is 0.245 nM. Also, the values for the IC50 in test [6] and in test [5] were 7.12 nM and 3.85 nM, respectively.

B5: mouse anti-CTLA4 monoclonal antibody D1B8 (antibody, V domains shown)
VH: QIQLQQSGPELVKPGASVKISCKASGYTFTDYYINWVKQRPGQGLEWIGWIYPGNNNTRYNEKFKGKATLTIDTSSSTAFMHLSSLTSEDSAVYFCARYYFDYWGQGTTLTVSS
VL: DIQMTQSPSSLSASLGERISLTCRASQEITGYLSWLQQKPDGTIKRLIYAASTLDSGVPQRFSGSRSGSDYSLTISSLESEDFADYYCLQYASYPRTFGGGTKLEIK
notes: as for B1
As for B5, the “EC50 of IL-2 release” value in test [1] came out at 43.6 nM. In test [2], the dissociation constant (Kd) worked out at 2.24 nM, the koff turned out to be 0.000495 s⁻¹ and the on-rate constant (kon) stood at 221000 M⁻¹ s⁻¹. Also, in test [3], binding was characterised by a dissociation constant (Kd) of 1.18 nM, the dissociation rate constant (koff) was 0.000532 s⁻¹ and the kon came to 451000 M⁻¹ s⁻¹. Further, in test [4], the concentration for a half-maximal effect (EC50) was 1.11 nM. Also, the concentration for a half-maximal effect (EC50) in test [7] turned out to be 5.78 nM.
